This data set deals with CcpA (Streptococcus pneumoniae D39) (UniProt A0A0H2ZQ65). The data set is described as follows: EMSA. The conditions noted are these: EMSA: 10 mM Tris-HCl pH 7.4, 1 mM DTT, 1 mM EDTA, 50 mM KCl, 5% glycerol, 50 ug/mL BSA, 0.05% NP-40, 20 min 37 C; footprinting binding 30 min 25 C. For orientation: Mobility shift assays separate free from complexed probe on a gel.

On to “GCTACAAACTGTTCCAATTTAACTGTGTTTTTCATAATAAAATCTCCTAAAATGTTTTTTCTTGTAAGCTAACTTACAAAAACCATTATACAAAATGGAATTTCGTTTTAGATAAAATTCTCTCAACTGTCATTTTTTTCTCCCAAAGTGTACTTTTTTAAGAAAAAAGCCGGGAAAATTCCCAGCTTTGCTATTATATTGATCCCAGCAGGATTCGAACCTGCGACCGTTCGCTTAGAAGGCGAATGCTCTATC (double strand) [P240 (PcomCDE)]”, for which the binding result is “binds”.

Values taken from publication PMC10269683.
